Results: patent US20030228627

Target: Full-length human Flag-tagged p53 (native, unacetylated) (UniProt P04637)

Full-length human histidine-tagged p300
acetylation of p53 by p300 in the presence of 3H-acetyl CoA (electrophoresis, fluorography): p300 efficiently acetylated p53
